Results from paper PMC10200994.

Biological target: T1, STAT1 (unphosphorylated, wild-type), fluorophore fusion, P42224
T1 chain: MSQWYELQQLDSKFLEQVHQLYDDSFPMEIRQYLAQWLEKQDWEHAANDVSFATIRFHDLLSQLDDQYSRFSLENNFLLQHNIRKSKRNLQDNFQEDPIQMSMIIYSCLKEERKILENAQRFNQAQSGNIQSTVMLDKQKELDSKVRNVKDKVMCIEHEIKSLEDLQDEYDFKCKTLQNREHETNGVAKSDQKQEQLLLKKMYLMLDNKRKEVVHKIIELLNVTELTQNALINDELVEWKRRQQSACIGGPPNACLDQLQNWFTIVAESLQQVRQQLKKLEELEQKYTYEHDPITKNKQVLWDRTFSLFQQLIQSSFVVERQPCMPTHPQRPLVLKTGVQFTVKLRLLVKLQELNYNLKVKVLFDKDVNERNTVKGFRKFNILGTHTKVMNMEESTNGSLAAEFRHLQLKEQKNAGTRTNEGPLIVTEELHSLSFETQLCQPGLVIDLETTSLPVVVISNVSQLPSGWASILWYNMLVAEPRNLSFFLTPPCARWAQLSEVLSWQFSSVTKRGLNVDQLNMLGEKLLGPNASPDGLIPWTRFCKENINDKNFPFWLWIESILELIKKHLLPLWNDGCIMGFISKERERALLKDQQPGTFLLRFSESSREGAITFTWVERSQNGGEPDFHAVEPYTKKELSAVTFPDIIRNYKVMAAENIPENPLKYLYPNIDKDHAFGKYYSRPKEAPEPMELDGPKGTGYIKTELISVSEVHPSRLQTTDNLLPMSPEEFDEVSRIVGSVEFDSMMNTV
Experiment: co-localization assay (relocalisation of a test protein by a compartment-targeted bait, fluorescence microscopy); HeLa cells co-expressing bait (STAT-NES or STAT-NLS, or wild-type STAT2 with its own export activity; green) and test protein without heterologous signal (red); no cytokine; fixed 20 h after transfection; Pearson correlation coefficient rP in cells with equimolar to 4-fold excess of bait
Conditions: remark: other sources report otherwise

- Pearson correlation coefficient rP (co-localization): > 0.94
B1: STAT1 (unphosphorylated, wild-type), fluorophore fusion, P42224 1-750 (natural protein)
chain: MSQWYELQQLDSKFLEQVHQLYDDSFPMEIRQYLAQWLEKQDWEHAANDVSFATIRFHDLLSQLDDQYSRFSLENNFLLQHNIRKSKRNLQDNFQEDPIQMSMIIYSCLKEERKILENAQRFNQAQSGNIQSTVMLDKQKELDSKVRNVKDKVMCIEHEIKSLEDLQDEYDFKCKTLQNREHETNGVAKSDQKQEQLLLKKMYLMLDNKRKEVVHKIIELLNVTELTQNALINDELVEWKRRQQSACIGGPPNACLDQLQNWFTIVAESLQQVRQQLKKLEELEQKYTYEHDPITKNKQVLWDRTFSLFQQLIQSSFVVERQPCMPTHPQRPLVLKTGVQFTVKLRLLVKLQELNYNLKVKVLFDKDVNERNTVKGFRKFNILGTHTKVMNMEESTNGSLAAEFRHLQLKEQKNAGTRTNEGPLIVTEELHSLSFETQLCQPGLVIDLETTSLPVVVISNVSQLPSGWASILWYNMLVAEPRNLSFFLTPPCARWAQLSEVLSWQFSSVTKRGLNVDQLNMLGEKLLGPNASPDGLIPWTRFCKENINDKNFPFWLWIESILELIKKHLLPLWNDGCIMGFISKERERALLKDQQPGTFLLRFSESSREGAITFTWVERSQNGGEPDFHAVEPYTKKELSAVTFPDIIRNYKVMAAENIPENPLKYLYPNIDKDHAFGKYYSRPKEAPEPMELDGPKGTGYIKTELISVSEVHPSRLQTTDNLLPMSPEEFDEVSRIVGSVEFDSMMNTV
